Test results reported in patent publication US12031137B2, “Compositions comprising SASP modulators and senescence attenuators and uses thereof for modulating cellular senescence” (RSEM, LIMITED PARTNERSHIP, priority 2016, dated 2024).

B1: Trap Q: NRP1 trap a1a2-b1b2, aa about 22-583, Y297A; SEQ ID NOs 79/80 (protein)
chain: FRNDKCGDTIKIESPGYLTSPGYPHSYHPSEKCEWLIQAPDPYQRIMINFNPHFDLEDRDCKYDYVEVFDGENENGHFRGKFCGKIAPPPVVSSGPFLFIKFVSDYETHGAGFSIRYELFKRGPECSQNYTTPSGVIKSPGFPEKYPNSLECTYIVFAPKMSEIILEFESFDLEPDSNPPGGMFCRYDRLEIWDGFPDVGPHIGRYCGQKTPGRIRSSSGILSMVFYTDSAIAKEGFSANYSVLQSSVSEDFKCMEALGMESGEIHSDQITASSQASTNWSAERSRLNYPENGWTPGEDSYREWIQVDLGLLRFVTAVGTQGAISKETKKKYYVKTYKIDVSSNGEDWITIKEGNKPVLFQGNTNPTDVVVAVFPKPLITRFVRIKPATWETGISMRFEVYGCKITDYPCSGMLGMVSGLISDSQITSSNQGDRNWMPENIRLVTSRSGWALPPAPHSYINEWLQIDLGEEKIVRGIIIQGGKHRENKVFMRKFKIGYSNNGSDWKMIMDDSKRKAKSFEGNNNYDTPELRTFPALSTRFIRIYPERATHGGLGLRMELLGCRSGSKENLYFQG
B2: Trap P: NRP1 trap a1a2-b1, aa about 22-424, Y297A; SEQ ID NOs 83/84 (protein)
chain: FRNDKCGDTIKIESPGYLTSPGYPHSYHPSEKCEWLIQAPDPYQRIMINFNPHFDLEDRDCKYDYVEVFDGENENGHFRGKFCGKIAPPPVVSSGPFLFIKFVSDYETHGAGFSIRYELFKRGPECSQNYTTPSGVIKSPGFPEKYPNSLECTYIVFAPKMSEIILEFESFDLEPDSNPPGGMFCRYDRLEIWDGFPDVGPHIGRYCGQKTPGRIRSSSGILSMVFYTDSAIAKEGFSANYSVLQSSVSEDFKCMEALGMESGEIHSDQITASSQASTNWSAERSRLNYPENGWTPGEDSYREWIQVDLGLLRFVTAVGTQGAISKETKKKYYVKTYKIDVSSNGEDWITIKEGNKPVLFQGNTNPTDVVVAVFPKPLITRFVRIKPATWETGISMRFEVYGCRSGSKENLYFQG
B3: Trap AF: NRP1 trap a1a2b2c, aa 1-280 and 431-856 incl. SP; SEQ ID NOs 55/56 (protein)
chain: MERGLPLLCAVLALVLAPAGAFRNDKCGDTIKIESPGYLTSPGYPHSYHPSEKCEWLIQAPDPYQRIMINFNPHFDLEDRDCKYDYVEVFDGENENGHFRGKFCGKIAPPPVVSSGPFLFIKFVSDYETHGAGFSIRYELFKRGPECSQNYTTPSGVIKSPGFPEKYPNSLECTYIVFAPKMSEIILEFESFDLEPDSNPPGGMFCRYDRLEIWDGFPDVGPHIGRYCGQKTPGRIRSSSGILSMVFYTDSAIAKEGFSANYSVLQSSVSEDFKKITDYPCSGMLGMVSGLISDSQITSSNQGDRNWMPENIRLVTSRSGWALPPAPHSYINEWLQIDLGEEKIVRGIIIQGGKHRENKVFMRKFKIGYSNNGSDWKMIMDDSKRKAKSFEGNNNYDTPELRTFPALSTRFIRIYPERATHGGLGLRMELLGCEVEAPTAGPTTPNGNLVDECDDDQANCHSGTGDDFQLTGGTTVLATEKPTVIDSTIQSEFPTYGFNCEFGWGSHKTFCHWEHDNHVQLKWSVLTSKTGPIQDHTGDGNFIYSQADENQKGKVARLVSPVVYSQNSAHCMTFWYHMSGSHVGTLRVKLRYQKPEEYDQLVWMAIGHQGDHWKEGRVLLHKSLKLYQVIFEGEIGKGNLGGIAVDDISINNHISQEDCAKPADLDKKNPEIKIDETGSTPGYEGEGEGDKNISRKPGNVLKTLDPRSGSKENLYFQG
B4: Trap Y: NRP1 trap a1a2-c, aa about 22-274 and 584-856; SEQ ID NOs 91/92 (protein)
chain: FRNDKCGDTIKIESPGYLTSPGYPHSYHPSEKCEWLIQAPDPYQRIMINFNPHFDLEDRDCKYDYVEVFDGENENGHFRGKFCGKIAPPPVVSSGPFLFIKFVSDYETHGAGFSIRYELFKRGPECSQNYTTPSGVIKSPGFPEKYPNSLECTYIVFAPKMSEIILEFESFDLEPDSNPPGGMFCRYDRLEIWDGFPDVGPHIGRYCGQKTPGRIRSSSGILSMVFYTDSAIAKEGFSANYSVLQSSVSEDFKEVEAPTAGPTTPNGNLVDECDDDQANCHSGTGDDFQLTGGTTVLATEKPTVIDSTIQSEFPTYGFNCEFGWGSHKTFCHWEHDNHVQLKWSVLTSKTGPIQDHTGDGNFIYSQADENQKGKVARLVSPVVYSQNSAHCMTFWYHMSGSHVGTLRVKLRYQKPEEYDQLVWMAIGHQGDHWKEGRVLLHKSLKLYQVIFEGEIGKGNLGGIAVDDISINNHISQEDCAKPADLDKKNPEIKIDETGSTPGYEGEGEGDKNISRKPGNVLKTLDPRSGSKENLYFQG
B5: Trap R: NRP1 trap a1a2-b1b2-c, aa about 22-856, Y297A; SEQ ID NOs 69/70 (protein)
chain: FRNDKCGDTIKIESPGYLTSPGYPHSYHPSEKCEWLIQAPDPYQRIMINFNPHFDLEDRDCKYDYVEVFDGENENGHFRGKFCGKIAPPPVVSSGPFLFIKFVSDYETHGAGFSIRYELFKRGPECSQNYTTPSGVIKSPGFPEKYPNSLECTYIVFAPKMSEIILEFESFDLEPDSNPPGGMFCRYDRLEIWDGFPDVGPHIGRYCGQKTPGRIRSSSGILSMVFYTDSAIAKEGFSANYSVLQSSVSEDFKCMEALGMESGEIHSDQITASSQASTNWSAERSRLNYPENGWTPGEDSYREWIQVDLGLLRFVTAVGTQGAISKETKKKYYVKTYKIDVSSNGEDWITIKEGNKPVLFQGNTNPTDVVVAVFPKPLITRFVRIKPATWETGISMRFEVYGCKITDYPCSGMLGMVSGLISDSQITSSNQGDRNWMPENIRLVTSRSGWALPPAPHSYINEWLQIDLGEEKIVRGIIIQGGKHRENKVFMRKFKIGYSNNGSDWKMIMDDSKRKAKSFEGNNNYDTPELRTFPALSTRFIRIYPERATHGGLGLRMELLGCEVEAPTAGPTTPNGNLVDECDDDQANCHSGTGDDFQLTGGTTVLATEKPTVIDSTIQSEFPTYGFNCEFGWGSHKTFCHWEHDNHVQLKWSVLTSKTGPIQDHTGDGNFIYSQADENQKGKVARLVSPVVYSQNSAHCMTFWYHMSGSHVGTLRVKLRYQKPEEYDQLVWMAIGHQGDHWKEGRVLLHKSLKLYQVIFEGEIGKGNLGGIAVDDISINNHISQEDCAKPADLDKKNPEIKIDETGSTPGYEGEGEGDKNISRKPGNVLKTLDPRSGSKENLYFQG
B6: Trap X: NRP1 trap a1a2-b1-c, aa about 22-430 and 584-856, Y297A; SEQ ID NOs 89/90 (protein)
chain: FRNDKCGDTIKIESPGYLTSPGYPHSYHPSEKCEWLIQAPDPYQRIMINFNPHFDLEDRDCKYDYVEVFDGENENGHFRGKFCGKIAPPPVVSSGPFLFIKFVSDYETHGAGFSIRYELFKRGPECSQNYTTPSGVIKSPGFPEKYPNSLECTYIVFAPKMSEIILEFESFDLEPDSNPPGGMFCRYDRLEIWDGFPDVGPHIGRYCGQKTPGRIRSSSGILSMVFYTDSAIAKEGFSANYSVLQSSVSEDFKCMEALGMESGEIHSDQITASSQASTNWSAERSRLNYPENGWTPGEDSYREWIQVDLGLLRFVTAVGTQGAISKETKKKYYVKTYKIDVSSNGEDWITIKEGNKPVLFQGNTNPTDVVVAVFPKPLITRFVRIKPATWETGISMRFEVYGCKITDYPEVEAPTAGPTTPNGNLVDECDDDQANCHSGTGDDFQLTGGTTVLATEKPTVIDSTIQSEFPTYGFNCEFGWGSHKTFCHWEHDNHVQLKWSVLTSKTGPIQDHTGDGNFIYSQADENQKGKVARLVSPVVYSQNSAHCMTFWYHMSGSHVGTLRVKLRYQKPEEYDQLVWMAIGHQGDHWKEGRVLLHKSLKLYQVIFEGEIGKGNLGGIAVDDISINNHISQEDCAKPADLDKKNPEIKIDETGSTPGYEGEGEGDKNISRKPGNVLKTLDPRSGSKENLYFQG
B7: Trap AG: NRP1 trap a1a2b2, aa about 22-280, 431-583 and 631-700; SEQ ID NOs 57/58 (protein)
chain: MERGLPLLCAVLALVLAPAGAFRNDKCGDTIKIESPGYLTSPGYPHSYHPSEKCEWLIQAPDPYQRIMINFNPHFDLEDRDCKYDYVEVFDGENENGHFRGKFCGKIAPPPVVSSGPFLFIKFVSDYETHGAGFSIRYELFKRGPECSQNYTTPSGVIKSPGFPEKYPNSLECTYIVFAPKMSEIILEFESFDLEPDSNPPGGMFCRYDRLEIWDGFPDVGPHIGRYCGQKTPGRIRSSSGILSMVFYTDSAIAKEGFSANYSVLQSSVSEDFKKITDYPCSGMLGMVSGLISDSQITSSNQGDRNWMPENIRLVTSRSGWALPPAPHSYINEWLQIDLGEEKIVRGIIIQGGKHRENKVFMRKFKIGYSNNGSDWKMIMDDSKRKAKSFEGNNNYDTPELRTFPALSTRFIRIYPERATHGGLGLRMELLGCRSGSKENLYFQG

What follows are molecules tested on SEMA3A-FC (assay: Sema 3A binding assay on plate-coated purified traps (saturation curves, KD)). Conditions: Table 2, Yes/No.
Method: Sema 3A and AP-VEGF165 binding assays. Saturation curves for the determinations of KD of binding to SEMA 3A or VEGF165 were obtained as follow. Wells of high protein binding 96 well plates (Maxisorp, Nunc) were coated with purified traps diluted in PBS and blocked afterward with binding buffer (PBS containing 2% casein and 0.05% Tween 20). The SEMA3A-FC (R&D systems) or AP-VEGF165 ligands were diluted in binding buffer over an extensive range of concentrations and added to wells. Following an overnight incubation, wells were washed with PBS containing 0.05% tween. Bound SEMA3a-FC was detected using an HRP-linked anti-Human IgG (Biorad) and ECL substrate (Pierce). Alternatively, bound AP-VEGF165 was detected using CPD star substrate (Roche). The Chemiluminescent signal was acquired on a TECAN reader. Dissociation constant (KD) were determined by non-linear curve fitting using the Graph Pad prism software.
The relative affinity of traps of the present invention to SEMA3A and VEGF has been assessed. Traps were prepared as described in Example 8.

Molecule	Binding to SEMA3A
Trap O: NRP1 trap a1a2-b1b2, aa about 22-583; SEQ ID NOs 77/78	Yes
Iso-c: Secreted NRP1 isoform-c/Siv; 609 amino acids; a1a2-b1b2-c (in part); SEQ ID NO: 45	Yes
Iso-d: Secreted NRP1 isoform S11; 704 amino acids; a1a2-b1b2-c (in part); SEQ ID NO: 46	Yes
Iso-b: Secreted NRP1 isoform-b/S12; 644 amino acids; a1a2-b1b2-c (in part); SEQ ID NO: 44	Yes
B1	No
B2	No
B3	No
B4	No
B5	Yes
B6	No
B7	Yes

Same assay, conditions: traps coated on plate, overnight incubation

Molecule	SEMA 3A-FC binding (dissociation constant)
B1	No binding
B2	No binding
B3	No binding
B6	No binding

Same assay, conditions: traps coated on plate, overnight incubation; read-out: SEMA 3A-FC binding (dissociation constant)

Molecule	Kd
B4	> 750 nM
B5	6.15 nM
